Publication PMC11480844 (2024)

B1: H2-Kb / Ed39 (parent complex)
chain 1: GEQVEQRPPHLSVREGDSAVIICTYTDPNSYYFFWYKQEPGAGLQLLMKVFSSTEINEGQGFTVLLNKKDKQLSLNLTAAHPGDSAVYFCATMSNYNVLYFGSGTKLTVEP
chain 2: GALVYQYPRRTICKSGTSMRMECQAVGFQATSVAWYRQSPQKTFELIALSTVNSAIKYEQNFTQEKFPISHPNLSFSSMTVLNAYLEDRGLYLCGARDGSYEQYFGPGTRLTVL
chain 3: not shown
chain 4: IQKTPQIQVYSRHPPENGKPNILNCYVTQFHPPHIEIQMLKNGKKIPKVEMSDMSFSKDWSFYILAHTEFTPTETDTYACRVKHDSMAEPKTVYWDRDM
chain 5: SIINFEKL
B2: H2-Kb / Ed33 (parent complex)
chain 1: SQLAEENSWALSVHEGESVTVNCSYKTSITALQWYRQKSGKGPAQLILIRSNEREKRNGRLRATLDTSSQSSSLSITATRCEDTAVYFCATDHNNAGAKLTFGGGTRLTVRP
chain 2: DAGVTQTPRHEVAEKGQTIILKCEPVSGHNDLFWYRQTKIQGLELLSYFRSKSLMEDGGAFKDRFKAEMLNSSFSTLKIQPTEPKDSAVYLCASSLYTNQAPLFGEGTRLSVL
chain 3: not shown
chain 4: B1 chain 4
chain 5: SIINFEKL

Variants of: B1
Experiment: % of reporter cells activated (NFAT-GFP), raw
Note: test concentration or dose not given here.

Variant | ratio to parent
chain 5 L8C | 0.483
chain 5 L8G | 0.676
chain 5 L8F | 0.64
chain 5 L8H | 0.788
chain 5 L8A | 0.663
chain 5 F5K | 0.374
chain 5 F5L | 0.765
chain 5 F5P | 0.281
chain 5 F5W | 0.738
chain 5 F5G | 0.454
chain 5 F5N | 0.484
chain 5 F5H | 0.791
chain 5 F5Y | 0.867
chain 5 F5T | 0.844
chain 5 F5R | 0.562
chain 5 F5C | 0.689
chain 5 F5Q | 0.712
chain 5 F5S | 0.829
chain 5 E6P | 0.00676
chain 5 E6S | 0.0298
chain 5 E6K | 0.308
chain 5 E6G | 0.00768

Variant | ratio to parent
chain 5 E6W | 0.00837
chain 5 E6F | 0.00457
chain 5 E6V | 0.0176
chain 5 E6M | 0.0331
chain 5 E6L | 0.0111
chain 5 K7R | 0.355
chain 5 K7G | 0.0989
chain 5 K7T | 0.359
chain 5 K7Q | 0.865
chain 5 K7V | 0.115
chain 5 K7N | 0.0309
chain 5 K7W | 0.355
chain 5 K7H | 0.0199
chain 5 K7M | 0.665
chain 5 K7D | 0.00558
chain 5 K7S | 0.293
chain 5 K7C | 0.331
chain 5 K7Y | 0.0483
chain 5 K7P | 0.326
chain 5 K7E | 0.00639
chain 5 I2N | 0.18
chain 5 I2T | 0.781

Variant | ratio to parent
chain 5 I2M | 0.907
chain 5 I2G | 0.841
chain 5 I2K | 0.396
chain 5 I2C | 0.926
chain 5 I2P | 0.58
chain 5 I2L | 1.03
chain 5 I2S | 0.779
chain 5 I2E | 0.719
chain 5 I2F | 0.683
chain 5 I2W | 0.453
chain 5 I3W | 0.472
chain 5 I3K | 0.286
chain 5 I3A | 0.56
chain 5 I3M | 0.564
chain 5 I3G | 0.156
chain 5 I3Q | 0.3
chain 5 I3H | 0.0308
chain 5 I3L | 0.706
chain 5 I3T | 0.416
chain 5 I3S | 0.12
chain 5 I3E | 0.558

Second part, the variant after the results:

ratio to parent | Variant
0.703 | chain 5 L8T
0.83 | chain 5 L8Y
0.801 | chain 5 L8R
0.591 | chain 5 L8V
0.462 | chain 5 L8S
0.771 | chain 5 L8I
0.762 | chain 5 L8M
0.272 | chain 5 S1G
0.00499 | chain 5 S1M
0.00338 | chain 5 S1I
0.0616 | chain 5 S1R
0.00514 | chain 5 S1F
0.0243 | chain 5 S1V
0.00689 | chain 5 S1N
0.351 | chain 5 S1Y
0.0798 | chain 5 S1H
0.00419 | chain 5 S1L
0.0783 | chain 5 S1K
0.114 | chain 5 N4G
0.00838 | chain 5 N4I
0.0119 | chain 5 N4F
0.22 | chain 5 N4R
0.00338 | chain 5 N4Q
1.25 | chain 5 N4D
0.106 | chain 5 N4E
0.124 | chain 5 N4H
0.0243 | chain 5 N4A
0.00879 | chain 5 N4M

Variants of: B2
Experiment: % of reporter cells activated (NFAT-GFP), raw

Variant | ratio to parent
chain 5 K7M | 0.0938
chain 5 K7F | 0.0757
chain 5 K7Q | 0.0157
chain 5 K7A | 0.227
chain 5 K7I | 0.018
chain 5 K7S | 0.754
chain 5 K7Y | 0.157
chain 5 K7W | 0.74
chain 5 K7P | 0.372
chain 5 K7V | 0.427
chain 5 L8D | 0.731
chain 5 I3D | 0.634
chain 5 I3M | 1.07
chain 5 I3H | 0.895
chain 5 I3T | 1.04
chain 5 F5G | 0.844
chain 5 F5K | 0.862
chain 5 F5N | 0.876
chain 5 F5C | 1.05
chain 5 F5R | 0.982

Variant | ratio to parent
chain 5 F5E | 0.625
chain 5 F5Q | 1.01
chain 5 E6W | 0.0137
chain 5 E6Y | 0.182
chain 5 E6P | 0.0303
chain 5 E6V | 0.0218
chain 5 E6M | 0.0967
chain 5 E6H | 0.223
chain 5 E6F | 0.101
chain 5 E6C | 0.0452
chain 5 E6R | 0.00434
chain 5 E6N | 0.00413
chain 5 I2R | 0.807
chain 5 I2N | 1.01
chain 5 I2L | 1.05
chain 5 I2F | 0.774
chain 5 I2D | 0.897
chain 5 I2T | 0.981
chain 5 I2V | 1.04

The next lines start with the values.

ratio to parent | Variant
0.846 | chain 5 L8P
0.941 | chain 5 L8K
1.01 | chain 5 L8Y
0.881 | chain 5 L8W
0.905 | chain 5 L8N
0.968 | chain 5 L8H
0.000438 | chain 5 N4P
0.135 | chain 5 N4D
0.428 | chain 5 N4L
0.0234 | chain 5 N4F
0.0904 | chain 5 N4C
0.173 | chain 5 S1N
0.91 | chain 5 S1Q
0.634 | chain 5 S1H
1.05 | chain 5 S1D
0.121 | chain 5 S1K
0.182 | chain 5 S1W
0.48 | chain 5 S1G
